Blank lines part the entries; values can stand above or below the binder they belong to.
Legend:
NDN3 peptide = molecular target: T1, NDN3 peptide (Plasmodium falciparum); test: ITC
T1 chain: NANPNVDPNANP

[1] = molecular target: T2, NANP trimer peptide (NANP3) (Plasmodium falciparum); test: ITC
T2 chain: NANPNANPNANP

DND3 peptide = molecular target: T3, DND3 peptide (Plasmodium falciparum); test: ITC
T3 chain: NVDPNANPNVDP

[2] = molecular target: T4, NPDP peptide (PfCSP aa 101-116) (Plasmodium falciparum NF54); test: SPR
T4 chain: NPDPNANPNVDPNANP

[3] = molecular target: NVDP peptide (PfCSP aa 109-125) (Plasmodium falciparum NF54, UniProt P19597); test: SPR
[4] = molecular target: T5, NANP 5.5-mer peptide, NP(NANP)5 (Plasmodium falciparum); test: SPR
T5 chain: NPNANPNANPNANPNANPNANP

[5] = molecular target: complete C-terminus of PfCSP (C-CSP) (Plasmodium falciparum NF54, UniProt P19597); test: SPR
[6] = molecular target: T6, KQPA peptide (PfCSP aa 95-109) (Plasmodium falciparum NF54); test: SPR
T6 chain: KQPADGNPDPNANPN

[7] = molecular target: T7, NANP pentamer peptide (NANP5) (Plasmodium falciparum (NF54)); test: crystal structure
T7 chain: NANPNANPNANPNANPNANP

Chain of NVDP peptide (PfCSP aa 109-125) (P19597 109-128): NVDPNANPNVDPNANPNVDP

B1: Fab fragment of mAb 4498 (Fab, V domains shown)
VH: QVQLVESGGGVVQPGRSLRLSCAASGFTFSIYGMHWVRQAPGKGLEWVALIWYDGTNKYYTDSVKGRFTISRDNSKNTLFLQMNSVRAEDTAVYYCARDAHYSDSSGYSSWGYFDYWGQGSLVTVSS
VL: EIVLTQSPATLSLSPGERATLSCRASQSVSSYLAWYQQKPGQAPRLLIFDASIRATGIPARFSGSGSGTDFTLTISSLEPEDFAVYYCQQRSNWYTFGQGTKLEIK
- binding result (NDN3 peptide): binds
- binding result [1]: binds
- binding result (DND3 peptide): binds

B2: mAb 4498 (recombinant human IgG1, kappa) (antibody, V domains shown)
VH: B1 VH
VL: B1 VL
- binding result [2]: binds
- binding result [3]: binds
- binding result [4]: binds

B3: mAb 3246 (recombinant human IgG1, kappa) (antibody, V domains shown)
VH: QVQLVESGGGVVQPGRSLRLSCAASGFTFSGSGMHWVRQAPGKGLEWVAIIWYDGSNKFYADSVKGRFTISRDNSKNTLYLQMNSLRGEDTAVYYCARVGDGDGNYMDVWGKGTTVTVSS
VL: not shown
- binding result [5]: binds

The next lines start with the values.

- binding result [6]: binds
- binding result [2]: binds
- binding result [4]: binds
B4: mAb 2541 (recombinant human IgG1, kappa) (antibody, V domains shown)
VH: QVQLVESGGGVVQPGRSLRLSCAASGFTFSSYGMHWVRQTTGKGLEWVAIIWHDGSKKYYADSVKGRLTISRDNSKNTLYLQMNSLRVEDTALYYCARVGDYSDFKYGAFDIWGQGTMVTVSS
VL: DIQMTQSPSTLSASVGDRVTITCRASQSISSWLAWYQQKPGKAPNLLIYKASTLESGVPSRFSGSGSGTEFTLTISSLQPDDFATYYCQQYNSYWTFGQGTRVEIK

- binding result [7]: binds
- binding result (NDN3 peptide): no binding
- binding result [1]: binds
B5: Fab fragment of mAb 2541 (Fab, V domains shown)
VH: B4 VH
VL: B4 VL

— article doi:10.1101/798769 (bioRxiv, 2019)
